From patent US20220401560A1, “PEPTIDE ENCAPSULATING FERRITIN” (Ajinomoto Co., Inc., priority 2019, published 2022) come the findings set out here.

Positions of bridges follow the written chain, without caps; N, C: chain ends. No end group written: not given here. *: point of attachment. Pent4ynoyl = C#CCCC(=O)*

Assay [1] deals with T1, ferritin (FTH) (Homo sapiens, UniProt P02794).
T1 construct: made in house; host or cells: Escherichia coli BL21 (DE3), plasmid pET20-FTH
Description: Encapsulation of fluorescent dye-modified peptide into FTH, column chromatography with absorbance at 480 nm and LC-MS. Particulars: absorbance at 480 nm at elution position of 24-mer FTH; LC-MS. Here is the method:
Of a 50 mM glycine hydrochloride buffer (pH 2.3) that contains FTH (chemical formula weight: 509,421) at a final concentration of 5 mg/mL and the peptide at a final concentration of 0.5 mM, 0.5 mL was left to stand at room temperature for 15 minutes. Next, 50 μL of a 1 M Tris hydrochloride buffer (pH 9.0) was added for neutralization, and the resulting solution was left to stand at room temperature for 3 hours. After the standing, the resulting solution was centrifuged (at 15,000 rpm for one minute). Then, the supernatant was collected and the volume was increased up to 3 mL with a 10 mM Tris hydrochloride buffer (pH 8). The resulting solution was injected into the HiPrep 26/60 Sephacryl S-300 HR column (GE Healthcare Inc.) equilibrated with a 10 mM Tris-HCl buffer (pH 8.0) to separate and purify 24-mer FTH by size at a flow rate of 1.3 mL/minute. The purified ferritin was analyzed using a HiPrep 16/60 Sephacryl S-300 HR column (GE Healthcare Inc.) equilibrated with a 10 mM Tris-HCl buffer (pH 8.0) at a flow rate of 0.5 mL/minute and confirmed as the absorbance at 480 nm unobservable from FTH only, at the same position as that of a peak of FTH.
The solution containing the FTH was concentrated to 0.25 mL by centrifugal ultrafiltration using Vivaspin 20-100K (GE Healthcare Inc.). […] For the LC-MS analysis, 50 μL of a 1 M glycine hydrochloride buffer (pH 2.3) was added to 50 μL of the sample solution and then the resulting solution was left to stand at room temperature for 15 minutes. To the solution 900 μL of ethanol was added. Next, the resulting solution was stirred vigorously and then centrifuged (at 15,000 rpm for five minutes) to collect its supernatant. The supernatant was analyzed using LCMS-2020 (Shimadzu Corporation) as LC-MS, inertsil (Registered trademark) ODS-3 with a particle diameter of 2 μm and 2.1 mm×50 mm (GL science) as a column. Into the column, 10 μL of the sample was injected, and eluded at a flow rate of 0.2 mL/min for 10 minutes such that a mixing ratio of a solution A (0.1% formic acid/99.9% acetonitrile) and a solution B (50% water/50% acetonitrile) was from 95:5 to 95:5. The concentration of the contained protein was determined using a protein assay CBB solution (Nacalai Tesque, Inc.) in terms of bovine albumin as a standard. The concentration of the encapsulated peptide was determined based on the absorbance at 480 nm of the fluorescent dye FAM to which PKC-F is modified.
First, the construction of FTH encapsulating two kinds of fluorescent dye-modified peptides [5(6)—FAM-[…] (SEQ ID NO: 10), FAM-SV40, chemical formula weight 1,516, and 5(6)—FAM-[…] […] (SEQ ID NO: 11), FAN-Np, chemical formula weight 384] was attempted. 0.5 mL of a 50 mM glycine hydrochloride buffer (pH 2.3) that contains FTH (chemical formula weight 509,421) at a final concentration of 5 mg/mL and a peptide at a final concentration of 0.5 mM, was left to stand at room temperature for 15 minutes. Next, 50 μL of a 1 M Tris hydrochloride buffer (pH 9.0) was added for neutralization, and the resulting solution was left to stand at room temperature for 3 hours. […] The absorbance at […] was confirmed at the same elusion position as that of ferritin 24-mer, for ferritin that was used for the operation to encapsulate FAM-SV40 therein. […] Next, the peptide amount of FAM-SV40 encapsulated in purified ferritin was quantified based on the 480 nm absorbance and by CBB staining with use of ferritin-amount-albumin as a standard.

The target in assay [2] is T1, ferritin (FTH). Kind of assay: Search for peptides capable of being encapsulated into ferritin by disassembly/reassembly process, LC-MS detection. Particulars: for encapsulation: encapsulation into ferritin (FTH), three trials; for MS peak of peptide derived from peptide encapsulating ferritin: FTH, disassembly/reassembly process performed. Set-up: key to encapsulation: “A” represents peptides with three times of confirmation of encapsulation.; “B” represents peptides with two times of confirmation of encapsulation or less.; “C” represents peptides without confirmation of encapsulation. Here is the method:
Peptides capable of being encapsulated into ferritin by disassembly/reassembly process were searched. In the disassembly/reassembly process, 1 mL of a 50 mM glycine hydrochloride buffer (pH 2.3) containing FTH at a final concentration of 5 mg/mL and the peptide at a final concentration of 0.5 mM, was left to stand at room temperature for 15 minutes. Next, 310 μL of a 1 M Tris hydrochloride buffer (pH 9.0) was added for neutralization, and left to stand at room temperature for 3 hours. After the standing, 1.2 mL of a 50 mM Tris hydrochloride buffer (pH 8.0) was added, and centrifuged (at 15,000 rpm for one minute). Thereafter, 2.5 mL of its supernatant was injected into a desalting column PD-10 (Sephadex G-25 filled product, GE Healthcare Inc.) equilibrated with a 50 mM Tris hydrochloride buffer (pH 8) for the elusion with 3.0 mL of a 50 mM Tris hydrochloride buffer (pH 8.0) to separate non-encapsulated peptides and ferritin. A whole amount (3.0 mL) of the resulting solution was concentrated to 0.1 mL by centrifugal ultrafiltration using Vivaspin 20-100K (GE Healthcare Inc.). The operation of adding 10 mL of a 50 mM Tris hydrochloride buffer to the concentrated solution and then concentrating was repeated twice to remove peptides that were not removed by PD-10 to obtain 0.1 mL of a sample solution. For the LC-MS analysis, 50 p1 of a 1 M glycine hydrochloride buffer (pH 2.3) was added to 50 μL of the sample solution and then the resulting solution was left to stand at room temperature for 15 minutes. To the solution, 900 μL of ethanol was added. Next, the resulting solution was stirred vigorously and then centrifuged (at 15,000 rpm for five minutes) for collection of the supernatant. The supernatant was analyzed using LCMS-2020 (Shimadzu Corporation) as LC-MS, Inertsil (Registered trademark) as a column, ODS-3, particle diameter of 2 μm and 2.1 mm×50 mm (GL science). Thereafter, 10 μL of the sample injected into the column was eluded at a flow rate of 0.2 mL/min for 10 minutes such that a mixing ratio of a solution A (0.1% formic acid/99.9% acetonitrile) and a solution B (50% water/50% acetonitrile) is from 95:5 to 95:5.
The encapsulation of the peptide into ferritin was studied by comparing in terms of the amount of the peptide detected by LC/MS between the sample prepared by encapsulating the peptide into ferritin at the disassembly/reassembly process and the sample prepared simply by mixing ferritin with the peptide. For example, ClAc-FHC was eluted at a retention time of 0.8 minute. […] However, the peak was not observed for the sample prepared by simply mixing the peptide with ferritin without performing the disassembly/reassembly process (FIG. 12B). FIG. 13 to FIG. 17 illustrate LC-MS results for FTH in which the peptide was encapsulated at the disassembly/reassembly process.

T1 sequence (P02794 whole entry): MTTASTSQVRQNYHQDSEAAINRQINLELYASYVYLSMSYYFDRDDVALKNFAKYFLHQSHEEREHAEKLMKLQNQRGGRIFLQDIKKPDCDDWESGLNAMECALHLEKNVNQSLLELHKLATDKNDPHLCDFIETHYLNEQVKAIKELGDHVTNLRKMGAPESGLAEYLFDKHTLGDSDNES

As for “5(6)-FAM-CGGKRPAAIK KAGQAKKKKG (SEQ ID NO: 11) ({5(6)‑FAM}-CGGKRPAAIKKAGQAKKKKG) [FAM-Np, fluorescent dye-modified peptide, linear]”, in assay [1], the “encapsulation of peptide in FTH” value is given as “not encapsulated”. Moreover, in assay [2], the encapsulation entry is “C”. As for EEEEEEEEEE (SEQ ID NO: 16) [Ex10], in assay [2], the “MS peak of peptide derived from peptide encapsulating ferritin” value (shortened to “MS peak of peptide derived”) is listed as “presence” and the encapsulation result is on record as “A (“A” represents peptides with three times of confirmation of encapsulation.)”. In the same order, the values of “FBP0032: cyclic peptide with disulfide bond, X is 4-pentynoic acid (Pent4ynoyl-GQKGCKKTPKLASLSCTGF; disulfide 5-16 (inferred))” are “presence” and “A (“A” represents peptides with three times of confirmation of encapsulation.)”. In the same order, the values of “FBP0033: cyclic peptide with disulfide bond, X is 4-pentynoic acid (Pent4ynoyl-GRPGCGPRKPRTPKKCGSH; disulfide 5-16 (inferred))” are “presence” and “A (“A” represents peptides with three times of confirmation of encapsulation.)”. In the same order, the values of “GGKRPARGGKRPAR (SEQ ID NO: 19) (Synthetic amino acid sequence of the peptide NRP-1-2 which is to be tested for encapsulation with ferritin) [linear peptide]” are “presence” and “A (“A” represents peptides with three times of confirmation of encapsulation.)”.

On to “GIRLRGGIRLRGGIRLRG (SEQ ID NO: 22) (Synthetic amino acid sequence of the peptide GRP78-3 which is to be tested for encapsulation with ferritin) [linear peptide]”, for which, in assay [2], the “MS peak of peptide derived” value is listed as “presence” and the encapsulation entry is reported as “B (“B” represents peptides with two times of confirmation of encapsulation or less.)”. In the same order, the values of HTSD (SEQ ID NO: 12) [EGFR] are “presence” and “A (“A” represents peptides with three times of confirmation of encapsulation.)”. Take “Pakti-L1: cyclic peptide, cysteine sulfur bonded to acetyl group at N-terminus ({CH2CO}-YILVRNRLLRVDCG; thioether N-13)”: in assay [2], the “MS peak of peptide derived” value is on record as “presence” and the encapsulation result was “B (“B” represents peptides with two times of confirmation of encapsulation or less.)”.

Regarding “QMARIPKRLARHQMAR (SEQ ID NO: 21) (Synthetic amino acid sequence of the peptide NS which is to be tested for encapsulation with ferritin) [linear peptide]”, in assay [2], the “MS peak of peptide derived” value is reported as “presence” and the encapsulation result is “A (“A” represents peptides with three times of confirmation of encapsulation.)”. As for RRRRRRRRRR (SEQ ID NO: 17) [Rx10], the encapsulation result in assay [2] is “C”.

For “SPRGDLAVLGHKY (SEQ ID NO: 18) (Synthetic amino acid sequence of the peptide avb6 which is to be tested for encapsulation with ferritin) [ανβ6, linear peptide]”, in assay [2], the “MS peak of peptide derived” value was “presence” and the encapsulation entry is listed as “B (“B” represents peptides with two times of confirmation of encapsulation or less.)”. In the same order, the values of “VLWLKNR (SEQ ID NO: 14) (Synthetic amino acid sequence of the peptide FGF3-FP16 which is to be tested for encapsulation with ferritin) [linear peptide]” are “presence” and “B (“B” represents peptides with two times of confirmation of encapsulation or less.)”. In the same order, the values of “cyclo (AS (D-Pro) PTWI (Dab) (Orn) (D-Dab)(Dab)W(Dab)(Dab)) [Murepavadin, reference compound]” are “presence” and “A (“A” represents peptides with three times of confirmation of encapsulation.)”. For “cyclo(PPYVPLII) (SEQ ID NO: 15) (cyclic; Synthetic amino acid sequence of the peptide Hymenistatin I which is to be tested for encapsulation with ferritin) [cyclic peptide purchased from Sigma-Aldrich, reference compound]” the same measures were “presence” and “B (“B” represents peptides with two times of confirmation of encapsulation or less.)”. With “cyclo(RGDFV) (SEQ ID NO: 13) [cyloRGDfV, reference compound]”, in assay [2], the “MS peak of peptide derived” value is reported as “presence” and the encapsulation result is reported as “B (“B” represents peptides with two times of confirmation of encapsulation or less.)”.
